Data on two molecules can be found in US20030007981A1 (UNIVERSITY OF SASKATCHEWAN, published 2003).

This test concerns the target biotinylated bovine transferrin (bovine, UniProt Q29443 20-704, biotinylated (sites not given)). In words: affinity chromatography: H. somnus total membranes mixed with biotinylated bovine transferrin, captured on streptavidin-agarose.

Sequence of biotinylated bovine transferrin (Q29443 20-704 limits assumed): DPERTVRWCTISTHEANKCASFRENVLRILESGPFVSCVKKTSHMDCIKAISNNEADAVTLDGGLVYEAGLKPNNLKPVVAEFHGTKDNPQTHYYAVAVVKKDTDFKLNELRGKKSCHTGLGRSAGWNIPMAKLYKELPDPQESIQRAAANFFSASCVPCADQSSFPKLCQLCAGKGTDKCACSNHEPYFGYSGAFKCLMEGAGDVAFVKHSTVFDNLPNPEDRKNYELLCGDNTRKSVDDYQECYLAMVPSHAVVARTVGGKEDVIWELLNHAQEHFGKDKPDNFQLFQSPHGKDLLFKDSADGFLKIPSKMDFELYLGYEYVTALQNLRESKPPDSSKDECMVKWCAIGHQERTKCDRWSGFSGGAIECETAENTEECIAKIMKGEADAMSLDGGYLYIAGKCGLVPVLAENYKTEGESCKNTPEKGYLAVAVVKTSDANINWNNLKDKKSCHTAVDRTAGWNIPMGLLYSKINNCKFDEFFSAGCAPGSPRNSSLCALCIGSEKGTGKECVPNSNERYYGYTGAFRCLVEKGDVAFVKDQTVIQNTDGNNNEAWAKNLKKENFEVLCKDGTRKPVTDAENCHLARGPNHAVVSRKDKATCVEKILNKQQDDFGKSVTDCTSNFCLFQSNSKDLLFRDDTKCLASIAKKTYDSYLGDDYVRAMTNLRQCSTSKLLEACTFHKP

B1: H. somnus transferrin-binding protein 1 (native, from strain HS25) (receptor)
chain: DTESPSSNTEAVLELEAIQVQAKHEISRHDNEVTGLGKVVKSSEDIDKELILNIRDLTRYDPGISVVEQGRGATSGYAMRGVDRNRVAMLVDGLGQAQSYSTLKSDANGGAINEIEYENIKSIELSKGSSSAEYGSGALGGAVGFRTKEADDVIKEGQNWGLNSKTAYSSKNSQFTQSVAGAFRVGGFDSLAIFTHRKGKETRVHPAAEEIQHTYQPLEGYFNRYEVDQNRNGKPVLANAYYILADECSNLSDPSCRHAKAKTNRVGAPENNPNWTPEEQAQAAKMPYPTRTASAKDYTGPDRISPNPMDYQSHSFFWKGGYRLSPNHYVGGVLEHTKQRYDIRDMTQRAYYTKEDICHSGSSCQTLDKNETDKGNFGITLTDNPLDGLVYDAGNQARGVRYGRGKFFNERHTKNRSGIFYRYENPDKNSWPDSLTLSIDRQDLKLSSRIHWTYCTDYPHVARCRASLDKPWSNYRTEKNDYQERLNLGQFNWEKTFNLGFTTHKVNIAAGFGTHRSTLQHGDLYAEYVTLPPYTEEKVYGEDNKVKQNPTAEEKEKLQYGNGSYDKPRVYRRKNTPELKTVNGCNETAGDNRDCSPRVITGRQYYLALRNHIAFGEWADLGLGVRYDNHTFRSNDPWTKGGNYHNWSWNAGVSLKPTRHFVVSYRVSSGFRVPAFYELYGVRTGASGKDNPLTQKEFLSRKPLKSEKAFNQEIGLAVQGDFGVIETSFFQNNYKNLLARADKYVEGLGYVTDFYNTQDVKLNGINILGRIYWEGISDRLPEGLYSTLAYNRINIKARKLHDNFTNVSEPTLEAVQPGRIIASIGYDDPEGRWGLNLSGTYSQAKQRDEVVGEKVFGKGGSIKRTINSKRTRAWYIYDLTAYYTWKEKFTLRAGIYNLTNRKYSTWESVRQSAANAVNQDLGTRSARFAARGRNFTVSMEMKF
notes: also called Tbp1; native H. somnus Tbp1
With B1, the binding result is given as “binds”.

B2: H. somnus transferrin-binding protein 2 (native, from strain HS25) (receptor)
chain: CSSGKGGFDLDDVEHTPPSSSGSSRPTYQDVPTGQRQQEIVEEINSPALGYATEIPRRNISPMPTTGTKESNARVAITAQQVAPLSMPFNSIKEDFIKRLIAENTKKNARGRDVKYFDDTDDVLFAHDGSNLAHKRDLQYVRVGYVLGTRKIELVFSHDKKTRDQFPAGWVGYVFYQGTSPAVTLPTQTVTYKGYWDFVSDAFNERTLAEDFTQENSSATSNIPGNQIGATSMDALVNRKVSGEKINIAHSAEFTADFGSKKLSGELKSNGYVSRIENEQQDVKTRYKIDADIKGNRFVGSATAQEKSHTIFGKDADKRLEGGFFGPKAEELAGKFLTDDNSLFVVFGAKRESKGDEKLETRFDAVKISTDSNKLEKETMDTFGNAAYLVLDGRQFPLVPESNAGTTGAGNTGKNEFISTIDGSHLNKTNHENHKKYKVTVCCSNLVYVKFGSYGEQTTANDASNSTAGAATTHNSTLTNGHLFLTGERTSLTDMAKQSGAAKYIGTWQANFLSSKGQVGSVDAGDPRNDSGKSRAEFDVNFGGKTVTGKFFDADGIQPALTMDSTKIEGNGFSGTAKTTGSLQLDKGSTGAGITVTFTDAKVDGAFYGPNAEEIGGTITSNGTGDKVGGVFGAKRQELSQQK
modifications: lipid modification (lipoprotein; residue not stated)
notes: The signal peptide (residues 1-19) is stated; also called Tbp2; protein with relative molecular weight of 80,000
With B2, the binding result is listed as “binds”.
